Consider 5 molecules from patent US20110189209A1 (GOVERNMENT OF THE UNITED STATES OF AMERICA AS REPRESENTED …, published 2011).

The target of experiment [1] is human CD3 on Jurkat cells (human) (UniProt P07766). Description: competitive binding on Jurkat cells, competitor at 1 nM, tracer 125I-UCHT1.
The target is the same in experiment [2]. Description: competitive binding on Jurkat cells, competitor at 100 nM, tracer 125I-UCHT1.
Experiment [3] deals with T1, monkey CD3 on HSC-F monkey T cells (cynomolgus monkey, UniProt Q95LI5 22-198).
T1 construct: whole, on cells; also called monkey CD3ε
In words: competition with FITC-labeled FN18 tracer (5x10^-9 M) for binding to HSC-F monkey T cells, flow cytometry, 4 C.

Experiment [4] deals with T1, monkey CD3 on HSC-F monkey T cells. Description: competition with FN18-FITC on HSC-F cells, flow cytometry, replicate assays.

T1 sequence (Q95LI5 22-198): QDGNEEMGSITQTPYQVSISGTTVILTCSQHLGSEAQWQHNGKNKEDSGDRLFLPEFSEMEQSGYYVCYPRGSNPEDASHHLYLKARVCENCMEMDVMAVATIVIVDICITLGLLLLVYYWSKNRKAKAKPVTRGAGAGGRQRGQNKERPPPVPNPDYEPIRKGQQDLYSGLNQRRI

Turning to UCHT1 (antibody), the figures for the % of 125I-UCHT1 bound to Jurkat cells in experiment [1] and in experiment [2] were 80% and 0%, respectively.

Turning to “scUCHT1 (from UniProt P01871 106-453) (Fc fusion)”, the % of 125I-UCHT1 bound to Jurkat cells in experiment [1] is 80%; in experiment [2], 0%.

B1: scFv(C207) (scFv)
scFv: DFVMSQSPSSLAVSVGERVTMSCKSSQSLLYFSNRKNYLAWYQQKPGQSPKLLINWASTRESGVPDRFTGSGSRTDFTLTISSVKAEDLAVYFCQQFYSYPPTFGGGTKLEIKGGGGSGGGGSGGGGSQVQLQQSEAELARPGASVKMSCKASGYTFTDYTIHWLRQKPGQGLDWIGYFNPSSGSTEYNRKFKDRTILTADRSSTTVYMQLSSLTSEDSAVYYCARKGEKLLGNRYWYFDVWGAGTSVTVSS
For B1, in experiment [3], the “IC50 (read off the curve)” value was roughly 2 nM.

B2: biscFv(C207) (other)
chain: DFVMSQSPSSLAVSVGERVTMSCKSSQSLLYFSNRKNYLAWYQQKPGQSPKLLINWASTRESGVPDRFTGSGSRTDFTLTISSVKAEDLAVYFCQQFYSYPPTFGGGTKLEIKGGGGSGGGGSGGGGSQVQLQQSEAELARPGASVKMSCKASGYTFTDYTIHWLRQKPGQGLDWIGYFNPSSGSTEYNRKFKDRTILTADRSSTTVYMQLSSLTSEDSAVYYCARKGEKLLGNRYWYFDVWGAGTSVTVSSGGGGSGGGGSGGGGSDFVMSQSPSSLAVSVGERVTMSCKSSQSLLYFSNRKNYLAWYQQKPGQSPKLLINWASTRESGVPDRFTGSGSRTDFTLTISSVKAEDLAVYFCQQFYSYPPTFGGGTKLEIKGGGGSGGGGSGGGGSQVQLQQSEAELARPGASVKMSCKASGYTFTDYTIHWLRQKPGQGLDWIGYFNPSSGSTEYNRKFKDRTILTADRSSTTVYMQLSSLTSEDSAVYYCARKGEKLLGNRYWYFDVWGAGTSVTVSS
For B2, in experiment [4], the “ratio of concentrations at equal displacement, biscFv(C207)/scFv(C207)” value was found to be 2.5 fold.

B3: Db(C207) (other)
chain: DFVMSQSPSSLAVSVGERVTMSCKSSQSLLYFSNRKNYLAWYQQKPGQSPKLLINWASTRESGVPDRFTGSGSRTDFTLTISSVKAEDLAVYFCQQFYSYPPTFGGGTKLEIKGGGGSQVQLQQSEAELARPGASVKMSCKASGYTFTDYTIHWLRQKPGQGLDWIGYFNPSSGSTEYNRKFKDRTILTADRSSTTVYMQLSSLTSEDSAVYYCARKGEKLLGNRYWYFDVWGAGTSVTVSS
notes: also called diabody of C207; diabody (C207)
B3: in experiment [4], the “ratio of concentrations at equal displacement, Db(C207)/scFv(C207)” value came out at 7 fold.
